The target of assay [1] is TYRP1 on the primary melanoma cell line M150543 (human, UniProt P17643 25-537). The experiment in a line: cell-based or functional assay.
In assay [2] the target is T1, EGFRvIII expressed on the cell surface (CHO-EGFRvIII, DK-MG, U87MG-EGFRvIII cells) (human, UniProt P00533 298-1210).
T1 construct: also called EGFRvIII on cells
Description: flow cytometry on U87MG-EGFRvIII cells, labelled anti-human Fc secondary antibody. On the procedure:
(§1) Cells used for binding experiments were harvested, washed with PBS and resuspended in FACS buffer. The antibody staining was performed in a 96-well round bottom plate. Cells were harvested, counted and 100 000 to 200 000 cells were seeded per well. The plate was centrifuged for 4 min at 400×g and the supernatant was removed. The test antibodies were diluted in FACS buffer and 20 μl of the antibody solution were added to the cells for 30 min at 4° C. To remove unbound antibody the cells were washed twice with FACS buffer before addition of the diluted secondary antibody PE-conjugated AffiniPure F(ab′)2 Fragment goat anti-human IgG Fcg Fragment Specific (Jackson ImmunoResearch, #109-116-170 or #109-116-098). After 30 min incubation on 4° C. unbound secondary antibody was washed away. Before measurement the cells were resuspended in 200 μl FACS buffer and analyzed by flow cytometry using BD Canto II or BD FACS Fortessa.
(In flow cytometry, cells or beads pass a laser one at a time.)

Assay [3] has as its target T1, EGFRvIII expressed on the cell surface …. Description: flow cytometry on U87MG-EGFRvIII cells, IgG PGLALA. On the procedure: as §1

Where a chain is given by its changes, count along the chain named.

B1: TYRP1 TCB CD3opt (bispecific antibody, human IgG1, kappa, L234A L235A)
heavy 1: not shown
heavy 2: QVQLVQSGAEVKKPGASVKVSCKASGFNIKDYFLHWVRQAPGQGLEWMGWINPDNGNTVYAQKFQGRVTMTADTSTSTVYMELSSLRSEDTAVYYCTRRDYTYEKAALDYWGQGTLVTVSSASTKGPSVFPLAPSSKSTSGGTAALGCLVEDYFPEPVTVSWNSGALTSGVHTFPAVLQSSGLYSLSSVVTVPSSSLGTQTYICNVNHKPSNTKVDEKVEPKSCDKTHTCPPCPAPEAAGGPSVFLFPPKPKDTLMISRTPEVTCVVVDVSHEDPEVKFNWYVDGVEVHNAKTKPREEQYNSTYRVVSVLTVLHQDWLNGKEYKCKVSNKALGAPIEKTISKAKGQPREPQVCTLPPSRDELTKNQVSLSCAVKGFYPSDIAVEWESNGQPENNYKTTPPVLDSDGSFFLVSKLTVDKSRWQQGNVFSCSVMHEALHNHYTQKSLSLSP
light 1: DIQMTQSPSSLSASVGDRVTITCRASGNIYNYLAWYQQKPGKVPKLLIYDAKTLADGVPSRFSGSGSGTDFTLTISSLQPEDVATYYCQHFWSLPFTFGQGTKLEIKRTVAAPSVFIFPPSDRKLKSGTASVVCLLNNFYPREAKVQWKVDNALQSGNSQESVTEQDSKDSTYSLSSTLTLSKADYEKHKVYACEVTHQGLSSPVTKSFNRGEC
light 2: EVQLLESGGGLVQPGGSLRLSCAASGFQFSSYAMNWVRQAPGKGLEWVSRIRSKYNNYATYYADSVKGRFTISRDDSKNTLYLQMNSLRAEDTAVYYCVRHTTFPSSYVSYYGYWGQGTLVTVSSASVAAPSVFIFPPSDEQLKSGTASVVCLLNNFYPREAKVQWKVDNALQSGNSQESVTEQDSKDSTYSLSSTLTLSKADYEKHKVYACEVTHQGLSSPVTKSFNRGEC
For B1, in assay [1], the “EC50 of tumor cell killing at 48 h, PBMC donor 1” value turned out to be 0.31 nM; the “EC50 of tumor cell killing at 48 h, PBMC donor 2” value stood at 0.03 nM; the “EC50 of tumor cell killing at 48 h, PBMC donor 3” value amounted to 0.08 nM.

B2: TYRP1 TCB CD3orig (bispecific antibody, human IgG1, kappa, L234A L235A)
heavy 1: not shown
heavy 2: B1 heavy 2
light 1: B1 light 1
light 2: B1 light 2 with Q28T, S31T, T102G, T103N, P105G, S106N, Y111W, Y112F, G113A
For B2, in assay [1], the “EC50 of tumor cell killing at 48 h, PBMC donor 1” value was 0.44 nM; the “EC50 of tumor cell killing at 48 h, PBMC donor 2” value amounted to 0.05 nM; the “EC50 of tumor cell killing at 48 h, PBMC donor 3” value was 0.14 nM.

B3: EGFRvIII TCB CD3orig (EGFRvIII binder P063.056) (bispecific antibody, human IgG1, kappa, L234A L235A)
heavy 1: not shown
heavy 2: EVQLVQSGAEVKKPGESLKISCKGSGYSFDSYWIAWVRQMPGKGLEWMGVIHPYDSDTRYSPSFQGQVTISADKSISTAYLQWSSLKASDTAMYYCARVSRSSYAFDYWGQGTLVTVSSASTKGPSVFPLAPSSKSTSGGTAALGCLVEDYFPEPVTVSWNSGALTSGVHTFPAVLQSSGLYSLSSVVTVPSSSLGTQTYICNVNHKPSNTKVDEKVEPKSCDKTHTCPPCPAPEAAGGPSVFLFPPKPKDTLMISRTPEVTCVVVDVSHEDPEVKFNWYVDGVEVHNAKTKPREEQYNSTYRVVSVLTVLHQDWLNGKEYKCKVSNKALGAPIEKTISKAKGQPREPQVCTLPPSRDELTKNQVSLSCAVKGFYPSDIAVEWESNGQPENNYKTTPPVLDSDGSFFLVSKLTVDKSRWQQGNVFSCSVMHEALHNHYTQKSLSLSP
light 1: not shown
light 2: B1 light 2 with Q28T, S31T, T102G, T103N, P105G, S106N, Y111W, Y112F, G113A
notes: 2+1 IgG CrossFab, inverted, with charge modifications; also called EGFRvIII TCB P063.056 with CD3orig
With B3, the EC50 (read off the curve) (usually the midpoint of the concentration-response curve) in assay [2] is around 10 nM.

B4: EGFRvIII antibody P063.056, human IgG1 PGLALA (antibody, V domains shown)
VH: EVQLVQSGAEVKKPGESLKISCKGSGYSFDSYWIAWVRQMPGKGLEWMGVIHPYDSDTRYSPSFQGQVTISADKSISTAYLQWSSLKASDTAMYYCARVSRSSYAFDYWGQGTLVTVSS
VL: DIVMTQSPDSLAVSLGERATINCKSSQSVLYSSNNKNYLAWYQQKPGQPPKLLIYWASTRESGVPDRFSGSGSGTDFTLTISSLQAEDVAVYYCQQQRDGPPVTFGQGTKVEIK
notes: Anti-EGFRvIII PGLALA IgG
For the molecule B4, the “EC50 (read off the curve)” value in assay [3] was around 5 nM; in assay [2] it was around 4 nM.

B5: EGFRvIII TCB P056.021 (CD3orig) (bispecific antibody, V domains shown)
VH 1: B4 VH
VL 1: not shown
VH 2: not shown
VL 2: QAVVTQEPSLTVSPGGTVTLTCGSSTGAVTTSNYANWVQEKPGQAFRGLIGGTNKRAPGTPARFSGSLLGGKAALTLSGAQPEDEAEYYCALWYSNLWVFGGGTKLTVL
notes: also called parental EGFRvIII TCB P056.021; P056.021 EGFRvIII TCB with CD3orig
As to B5, in assay [2], the “EC50 (read off the curve)” value was around 5 nM.

(Values after patent US20230416411A1 (Hoffmann-La Roche, published 2023).)
